Test results reported in publication PMC4656213, “Structural basis for inhibition of the Tob-CNOT7 interaction by a fragment screening approach” (Protein & Cell, 2015).

Biological target: T1, human CNOT7 (human, UniProt Q9UIV1 11-262)
T1 construct: CNOT7 (Caf1), human; A second preparation (N-terminal His6, pET-28b, Rosetta2) was made for the SPR screening; also called Caf1; CAF1; source: E. coli BL21 (DE3), purified following the protocol for wild-type Tob
Assay: ITC; CNOT7 at 0.05 mM in the cell, TobN138 (wild type or K63A) at 0.45 mM titrated in; room temperature; 20 mM HEPES pH 7.5, 150 mM NaCl, 5% DMSO; one-site model
Conditions: both partners purified

T1 sequence (Q9UIV1 11-262): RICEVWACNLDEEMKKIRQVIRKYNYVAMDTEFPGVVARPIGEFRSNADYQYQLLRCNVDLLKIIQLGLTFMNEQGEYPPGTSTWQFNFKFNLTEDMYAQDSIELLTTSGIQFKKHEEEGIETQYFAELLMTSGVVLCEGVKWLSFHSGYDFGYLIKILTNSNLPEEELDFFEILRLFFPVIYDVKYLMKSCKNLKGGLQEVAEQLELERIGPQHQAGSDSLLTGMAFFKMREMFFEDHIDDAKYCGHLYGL

Row | Binder | stoichiometry N
1 | human Tob residues 1-138 (TobN138), wild type (domain or fragment, UniProt P50616 1-138, looked up, Tob (Tob1), human, residues 1-138, containing the Box A and Box B motifs; Cloned into pGEX-6P-1 via BamHI and XhoI; A second preparation (His6-SUMO, pET-28b, Rosetta2) was made for the SPR screening; also called Tob1; TobN138 WT) MQLEIQVALNFIISYLYNKLPRRRVNIFGEELERLLKKKYEGHWYPEKPYKGSGFRCIHIGEKVDPVIEQASKESGLDIDDVRGNLPQDLSVWIDPFEVSYQIGEKGPVKVLYVDDNNENGCELDKEIKNSFNPEAQV | 0.611 ± 0.00797 sites
2 | TobN138 K63A mutant (domain or fragment, human, UniProt P50616 1-138, looked up, Tob (Tob1), human, residues 1-138, with the point mutation K63A; Made by PCR mutagenesis with the human TobN138 expression plasmid as template; source: E. coli BL21 (DE3), purified following the protocol for wild-type Tob) MQLEIQVALNFIISYLYNKLPRRRVNIFGEELERLLKKKYEGHWYPEKPYKGSGFRCIHIGEAVDPVIEQASKESGLDIDDVRGNLPQDLSVWIDPFEVSYQIGEKGPVKVLYVDDNNENGCELDKEIKNSFNPEAQV | 0.737 ± 0.00585 sites
